Five proteins from PMC11643046 (bioRxiv, 2025) can be followed below.

This data set deals with the molecule itself. Briefly: SDS-PAGE.

Where a chain is given by its changes, count along the chain named. In names and notes the source's numbering stands.

B1: Mycobacterium tuberculosis CrgA (Rv0011c), wild type, full length, with C-terminal His tag (natural protein)
chain: MMPKSKVRKKNDFTVSAVSRTPMKVKVGPSSVWFVSLFIGLMLIGLIWLMVFQLAAIGSQAPTALNWMAQLGPWNYAIAFAFMITGLLLTMRWH
For B1, the “stoichiometry N” value was found to be 2.

B2: CrgA N74A mutant (natural protein)
chain: B1 chain with N75A
On to B2, for which the binding result was “binds”.

B3: CrgA G44V mutant (natural protein)
chain: B1 chain with G45V
For B3, the binding result is reported as “binds”.

B4: CrgA A78V mutant (natural protein)
chain: B1 chain with A79V
Regarding B4, the binding result is reported as “binds”.

B5: CrgA G39V mutant (natural protein)
chain: B1 chain with G40V
Consider B5, for which the binding result was “binds”.
